Measured values reported in the supplement of paper PMC9170038.

Tested on: MS2 coat protein
Assay: apparent KD of MS2 coat protein; designed switch direction (-1 OFF switch, 1 ON switch): -1; higher = weaker reporter binding
Summary of the method: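 Normalised cluster fluorescence was curve-fitted, and each design's median over clusters is its apparent KD. Before this, SNAP-549-labelled MS2 coat protein was titrated from 0.7 or 1.5 nM, doubling to 3 µM, over RNA switches transcribed on Illumina chips by stalled E. coli RNA polymerase. Titrations had no input, 200 uM small-molecule ligand, or an oligonucleotide input, and steps lasted 0.8–1.5 h (lowest) to 10–20 min (highest).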

[1] = Eterna round: R95, input ligand: microRNA oligo, concentration not stated
[2] = input ligand: microRNA oligo, concentration not stated
[3] = Eterna round: R95, input ligand: FMN 200 uM
[4] = Eterna round: R95, input ligand: none

| Sequence | apparent KD of MS2 coat protein (input ligand: FMN 200 uM) | apparent KD of MS2 coat protein (input ligand: none) | also measured |
| --- | --- | --- | --- |
| UAUUAGCAAGCAAGAUCCCACAUGAGGAUCACCCAUGUGCUCGUCUUAUAAGGUACUGUGACGAGAGUCACGGUACC [Mat - Sensor, turn-off var - Eli Mod - D47] (Eterna round: R97, puzzle: Sensor, turn-off variant 1) | 51.4 nM | 54.2 nM |  |
| UAUUAGCAAGCGAGAUCCCACAUGAGGAUCACCCAUGUAAUAAGCAUCCAGAAUUACUGGGUGCAAGCUCGUCUUAU [Winner reversed engineered 10] (Eterna round: R97, puzzle: Sensor, turn-off variant 1) | 45.4 nM | 42.9 nM |  |
| UAUUAGCAAGCGAGAUCCCACAUGAGGAUCACCCAUGUGCUCGCAUCCAGAAUUACUGGGUGCAAAGCUCGUCUUAU [Winner reversed engineered 8] (Eterna round: R97, puzzle: Sensor, turn-off variant 1) | 23.1 nM | 23.3 nM |  |
| UAUUAGCAAGCGAGAUCCGACAUGAGGAUCACCCAUGUGCUCGUCUUAUAAGGGAGGGAGGGAAAACCCUCCCUCCC [Elimod 9 - Jieux - Sensor, turn-off variant 1] (Eterna round: R97, puzzle: Sensor, turn-off variant 1) | 19.5 nM | 21.2 nM |  |
| UAUUAGCAAGCGAGAUCCUACAUGAGGAUCACCCAUGUGCUCGUCUUAUAAGGUACUGUGACGAAAGUCACGGUACC [Eli 91 v36] (Eterna round: R97, puzzle: Sensor, turn-off variant 1) | 18.2 nM | 27.5 nM |  |
| UAUUAGCAAGCGAGGUCCCACAUGAGGAUCACCCAUGUGCUCGUCUUAUAAGGUACUGUGACGAAAGUCACGGUACC [Sensor 3, v1 - 91 v8] (Eterna round: R97, puzzle: Sensor, turn-off variant 1) | 14.7 nM | 13.1 nM |  |
| UAUUAGUGAGGAUAUGAGUCGUAGAACAAUAGUACUACGUCUCAGAAGGCACAUGAGGAUCACCCAUGUUCCUU [Fiskers Ex 4 Super Stable 44 mod 35] (puzzle: Exclusion 4) |  |  | apparent KD of MS2 coat protein [1]: 13.6 nM |
| UAUUAGUGAGGAUAUGAGUCGUAGAACAAUAGUACUACGUCUCAGAAGGCACAUGAGGAUCACCCAUGUUCCUU [Mod of Fisker - Jieux - Exclusion 4] (Eterna round: R97, puzzle: Exclusion 4) | 71.3 nM | 16.1 nM |  |
| UAUUAGUGAGGAUAUGAGUCGUAGAACAAUAGUACUACGUCUCAGAAGGUACAUGAGGAUCACCCAUGUUUCUC [Fiskers Ex 4 Super Stable 44 mod 33] (puzzle: Exclusion 4) |  |  | apparent KD of MS2 coat protein [1]: 18.8 nM |
| UAUUAUAAUGUAGGAUAUCUGCACGUUUAGUGCAGAGAAGGACAUGAGGAUCACCCAUGUAUAGUAGCUUCGGCUACAUUAUUU [ENG1-B2] (Eterna round: R96, puzzle: Exclusion NG 1) | 103 nM | 68.9 nM | apparent KD of MS2 coat protein [2]: 52.2 nM |
| UAUUCUGGAGGAUAUACAUGAGGAUCACCCAUGUAAAUUGUACAGAGCGGGAGUCUAUGUAGAAGGCUAGGACA [EX3 C.2] (Eterna round: R97, puzzle: Exclusion 3) | 60.8 nM | 19.1 nM |  |
| UAUUUACAUGAGGAUCACCCAUGUCAGGAUAUGCGUCGAUCGUCGAAAGACGAUAGCCGCAGAAGGGACAAUAU [LRO-Excl01-20 mod derived from EliFisker 4.24] (Eterna round: R97, puzzle: Exclusion 1) | 246 nM | 83.1 nM |  |
| UAUUUAUAGCAAGGAUAUGAUUAUUAUUAUUUAUCAGAAGGUGCACAUGAGGAUCACCCAUGUUUUAUAUAUAAUAAUUUAAUU [Title] (Eterna round: R96, puzzle: Exclusion NG 1) |  |  | apparent KD of MS2 coat protein [2]: 82.5 nM |
| UAUUUAUAUGAAGGAUAUACUUAACAUGAGGAUCACCCAUGUGGUGUUGUGAGUGAGUGAGUUUAGUAGAAGGUCAAGUAUUUU [JMF's solution 53] (Eterna round: R96, puzzle: Exclusion NG 2) | 844 nM | 456 nM | apparent KD of MS2 coat protein [2]: 378 nM |
| UAUUUGCAAGCGAGAUCCCACAUGAGGAUCACCCAUGUUCUUGGAAAGUACAGAAUUACUGUACAAGCUCGUCUUAU [Winner reversed engineered 32] (Eterna round: R97, puzzle: Sensor, turn-off variant 1) | 22.1 nM | 25.7 nM |  |
| UCAAAGUCAGGAUAUACAUGAGGAUCACCCAUGUAAAAUUUUAAUUUAAUUUGAAGGUGUAGAAGGGACAAACC [Ex3 #33] (Eterna round: R97, puzzle: Exclusion 3) | 18.3 nM | 31.6 nM |  |

| Sequence | apparent KD of MS2 coat protein (input ligand: FMN 200 uM) | apparent KD of MS2 coat protein (input ligand: none) | also measured |
| --- | --- | --- | --- |
| UCAAGCUUUAAGCGUGUGAACAUGAGGAUCACCCAUGUAUUUUUGGUUAGGAGUUCUGUAAGGGAUGCUCGUCUUAU [JR_SWV3TOV1_Sub093] (puzzle: Sensor v3, turn-off variant 1) |  |  | apparent KD of MS2 coat protein [3]: 37.4 nM; apparent KD of MS2 coat protein [1]: 47.5 nM; apparent KD of MS2 coat protein [4]: 50.7 nM |
| UCAGUUCUGCAAGGAUAUCGUCCUAGUUUGGUUCGAGAAGGUGCUUUUGUUUUUUCUUUGUGUUGACAUGAGGAUCACCCAUGU [JR_ExcNG1_Sub053] (Eterna round: R96, puzzle: Exclusion NG 1) | 20.7 nM | 27.1 nM | apparent KD of MS2 coat protein [2]: 13.8 nM |
| UCAUGCUAAGGAUAUGACGUCGGCUACAUGAGGAUCACCCAUGUGGGUUCGUUAUGGCCAUUAGAAGGUAGCGAUU [Eternabot (L2) Solution 95] (Eterna round: R97, puzzle: Exclusion 5) | 17.8 nM |  |  |
| UCAUGGUAGCAGGAUAUGCUAGAAAUUUUUUAUGCAGAAGGGCUUACAUGAGGAUCACCCAUGUGUUAGGUUUA [JR_E6_Sub071] (puzzle: Exclusion 6) |  |  | apparent KD of MS2 coat protein [3]: 22.3 nM; apparent KD of MS2 coat protein [1]: 110 nM; apparent KD of MS2 coat protein [4]: 221 nM |
| UCAUGUAUGUAGGAUAUCGAUGUCCUCGGACAUCGAGAAGGACGUACAUGAGGAUCACCCAUGUAACUUGCAUG [Exclusion 6 - B - 11:c] (puzzle: Exclusion 6) |  |  | apparent KD of MS2 coat protein [3]: 23 nM; apparent KD of MS2 coat protein [1]: 14 nM; apparent KD of MS2 coat protein [4]: 23.4 nM |
| UCCAAGCGGAAGCAAUGAAACAUGAGGAUCACCCAUGUCCCGGUGGUCAUUCACCCAAGCUUUUUGUAGUCAACCUU [Eternabot (L1) Solution 42] (Eterna round: R97, puzzle: Sensor, turn-off variant 1) | 249 nM | 297 nM |  |
| UCCAGUGAAGGAUAUGCACCAGGCAAUUGUAGGGUACUCAUACAUGAGGAUCACCCAUGUAGAAGGUCGCAGGC [Eternabot (L2) Solution 78] (Eterna round: R97, puzzle: Exclusion 2) | 32.4 nM |  |  |
| UCCGGACAUGAGGAUCACCCAUGUUAGGAUAUCUGAGGUGUGCCAGGAUCCUGGGCCCAGAGAAGGAAUAUGGC [Eternabot (L2) Solution 28] (Eterna round: R97, puzzle: Exclusion 1) | 21.7 nM | 19.8 nM |  |
| UCCGGGUUUGUAGGAUAUAGUCUGCUUUGCAGACUAGAAGGACAUGAGGAUCACCCAUGUUGUGGAAAUUUGGGAUGUUCCUUU [random2] (Eterna round: R96, puzzle: Exclusion NG 1) | 176 nM | 189 nM | apparent KD of MS2 coat protein [2]: 27.4 nM |
| UCCUCACAUGAGGAUCACCCAUGUGAGGAUAUCAUGCUUCGUAGUAAACUACGAAGUGUGAGAAGGCGCAUGGC [Omei Ex1 D16] (Eterna round: R97, puzzle: Exclusion 1) | 20.4 nM | 16.2 nM |  |
| UCCUGACAUGAGGAUCACCCAUGUGAGGAUAUGUGGAUCGAGUCAAAUCUCGUUCCGUGCAGAAGGCACAGGGC [EX1 A.21] (Eterna round: R97, puzzle: Exclusion 1) | 24.9 nM | 19 nM |  |
| UCCUGGCGAGGAUAUACAAAGAUUUUUUCGUUUUGUCUCGAACAUGAGGAUCACCCAUGUAGAAGGUGCUGCUG [JR_Ex2_Sub014] (Eterna round: R97, puzzle: Exclusion 2) | 50.3 nM | 52.2 nM |  |
| UCGACGUCGUCAGGAUAUAGUCUUAAUGUCAUGCUUUUGUUCGUACAUGAGGAUCACCCAUGUGGCUAGAAGGGACUAAAGUUU [JR_ExcNG2_Sub016] (Eterna round: R96, puzzle: Exclusion NG 2) | 16.1 nM | 26.9 nM | apparent KD of MS2 coat protein [2]: 11.7 nM |
| UCGGCGCGAGGAUAUACGGUUGCUUGGUAGGGUCGUGGCGUACAUGAGGAUCACCCAUGUAGAAGGCGCGCCGC [Apr-15 SS2-31] (puzzle: Exclusion 2) |  |  | apparent KD of MS2 coat protein [1]: 15.9 nM |
| UCGGCGCGAGGAUAUACGUUUGCUUUUUUUCGUUUUUGUGUACAUGAGGAUCACCCAUGUAGAAGGCGCGCCGC [Apr-15 SS2-20] (puzzle: Exclusion 2) |  |  | apparent KD of MS2 coat protein [1]: 14.6 nM |
